The source of these data is paper PMC3252480 (Nature structural & molecular biology, 2011).

B1: Vps21-His10 (natural protein, S. cerevisiae, UniProt P36017 1-210, looked up)
chain: MNTSVTSIKLVLLGEAAVGKSSIVLRFVSNDFAENKEPTIGAAFLTQRVTINEHTVKFEIWDTAGQERFASLAPMYYRNAQAALVVYDVTKPQSFIKARHWVKELHEQASKDIIIALVGNKIDMLQEGGERKVAREEGEKLAEEKGLLFFETSAKTGENVNDVFLGIGEKIPLKTAEEQNSASNERESNNQRVDLNAANDGTSANSACSC

Experiment [1] has as its target Vps21-His10 (S. cerevisiae) (UniProt P36017). Put plainly: liposome tethering by quasielastic light scattering.
A further experiment addresses T1, GST-Ypt53 (S. cerevisiae, UniProt P36019 1-220).
T1 sequence (looked up): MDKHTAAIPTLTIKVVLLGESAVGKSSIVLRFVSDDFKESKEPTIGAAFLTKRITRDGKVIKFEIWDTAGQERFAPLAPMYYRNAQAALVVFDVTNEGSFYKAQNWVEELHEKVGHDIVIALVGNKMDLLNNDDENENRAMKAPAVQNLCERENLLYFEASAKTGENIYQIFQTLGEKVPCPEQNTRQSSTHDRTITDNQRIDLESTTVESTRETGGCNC
Nature of the experiment: bead-liposome tethering assay.

The experiment “Vps21-His10” concerns the target B1. Nature of the experiment: bead-liposome tethering assay.

Bounds are passed on as bounds.

In turn, “Vps21-His10 (from UniProt P36017 1-210) (natural protein)” had a critical surface density for tethering in experiment [1] of less than 1300 μm^−2.

On to B1, for which the binding result with GST-Ypt53 was “binds”.

B2: GST-Ypt10 (natural protein, S. cerevisiae, UniProt P38146 1-199, looked up)
chain: MEATIKVVLLGDSSVGKTSIVTRLKSGKFLAKHAATIGAAFITKTIEVPSNDSSTEKRIHMEIWDTAGQERYKSLVPMYYRDANIALIVFELGDVSSLQCAKTWFQDLQDRAQGTQVIIVGNKYDLVCEEHSGEVTIPAELQGLPYVAVSAKTGYNFDTLNKIIISLVPESQFKTLSKNNEQGNILEINKKKSGSGCIC
For the molecule B2, the binding result in the experiment with Vps21-His10 is on record as “binds”.
